The record followed here is patent publication US20080063635A1 (Kyowa Kirin, published 2008).

For the experiment, the target named is T1, CD40 (UniProt P25942 21-277, limits assumed).
T1 construct: whole, on cells; also called CD40 on Ramos cells
The experiment is described as follows: flow cytometry on Ramos cells, R-PE anti-human antibody. The procedure: A Ramos cell line was suspended in a PBS staining buffer (SB) containing 0.1% NaN₃ and 2% FCS at a concentration of 2×10⁶/ml. The cell suspension (100 μl/well) was dispensed into wells of a 96-well round-bottom plate (manufactured by Becton, Dickinson and Company). Each hybridoma culture supernatant (50 μl) was added thereto, followed by incubation at a temperature below freezing for 30 minutes. A human IgG1 antibody to human serum albumin as a negative control was adjusted to a concentration of 2 μg/ml in a hybridoma culture medium. The medium (50 μl) was added to the plate, followed by incubation at a temperature below freezing for 15 minutes. After washing the plate with SB, 50 μl of a 250-fold diluted R-PE fluorescently labeled anti-human antibody (Southern Biotechnology Associates, Inc.) was added to the plate, followed by incubation at a temperature below freezing for 15 minutes. After washing with SB twice, the plate was suspended in 300 to 500 μl of a FACS buffer, and the fluorescence intensity of each cell was measured using FACS (FACSort, FACScan, manufactured by Becton, Dickinson and Company).

T1 sequence (P25942 21-277 limits assumed): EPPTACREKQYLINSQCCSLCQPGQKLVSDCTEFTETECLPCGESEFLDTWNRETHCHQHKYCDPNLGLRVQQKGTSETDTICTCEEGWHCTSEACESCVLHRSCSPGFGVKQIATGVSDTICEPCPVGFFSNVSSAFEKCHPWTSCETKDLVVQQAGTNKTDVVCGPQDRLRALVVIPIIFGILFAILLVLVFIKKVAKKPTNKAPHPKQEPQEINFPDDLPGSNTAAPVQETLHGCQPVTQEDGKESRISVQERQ

B1: 4D11-G[1/1/4/4] (antibody, V domains shown)
VH: QLQLQESGPGLLKPSETLSLTCTVSGGSISSPGYYGGWIRQPPGKGLEWIGSIYKSGSTYHNPSLKSRVTISVDTSKNQFSLKLSSVTAADTAVYYCTRPVVRYFGWFDPWGQGTLVTVSS
VL: AIQLTQSPSSLSASVGDRVTITCRASQGISSALAWYQQKPGKAPKLLIYDASNLESGVPSRFSGSGSGTDFTLTISSLQPEDFATYYCQQFNSYPTFGQGTKVEIK
notes: Chimeric heavy chain constant region: CH1 and hinge from human IgG1 (N5KG1), CH2 and CH3 from human IgG4 (N5KG4PE); also called IgG[1/1/4/4]; N5KG1144 with 4D11 variable regions
Take B1: the binding result was “binds”.

B2: 4D11-G[4/4/4/1] (antibody, V domains shown)
VH: B1 VH
VL: B1 VL
notes: Chimeric heavy chain constant region: CH1, hinge and CH2 from human IgG4 (N5KG4PE, with S228P and L235E), CH3 from human IgG1; also called IgG[4/4/4/1]; N5KG4441 with 4D11 variable regions
As for B2, the binding result is reported as “binds”.

B3: 4D11-G[4/4/1/1] (antibody, V domains shown)
VH: B1 VH
VL: B1 VL
notes: Chimeric heavy chain constant region: CH1 and hinge from human IgG4 (N5KG4PE, with S228P and L235E), CH2 and CH3 from human IgG1 (N5KG1); also called IgG[4/4/1/1]; N5KG4411 with 4D11 variable regions
In the case of B3, the binding result is given as “binds”.

B4: 4D11-G[4/4/1/4] (antibody, V domains shown)
VH: B1 VH
VL: B1 VL
notes: Chimeric heavy chain constant region: CH1 and hinge from human IgG4 (N5KG4PE, with S228P and L235E), CH2 from human IgG1, CH3 from human IgG4; also called IgG[4/4/1/4]; N5KG4414 with 4D11 variable regions
As for B4, the binding result is given as “binds”.
